Test results published in publication PMC10229537, “A cryo-EM structure of KTF1-bound polymerase V transcription elongation complex” (Nature Communications, 2023).

T1: NRP(D/E)2 (Arabidopsis thaliana (endogenous in T87 …, UniProt Q9LK40 1-1172))
T1 construct: NRP(D/E)2, second largest subunit shared by Pol IV and Pol V, Arabidopsis thaliana; also called NRP(D/E)2 subunit; source: endogenous, A. thaliana T87 cells, co-purified with 3xFLAG-10xHis-NRPE1
T1 sequence (looked up): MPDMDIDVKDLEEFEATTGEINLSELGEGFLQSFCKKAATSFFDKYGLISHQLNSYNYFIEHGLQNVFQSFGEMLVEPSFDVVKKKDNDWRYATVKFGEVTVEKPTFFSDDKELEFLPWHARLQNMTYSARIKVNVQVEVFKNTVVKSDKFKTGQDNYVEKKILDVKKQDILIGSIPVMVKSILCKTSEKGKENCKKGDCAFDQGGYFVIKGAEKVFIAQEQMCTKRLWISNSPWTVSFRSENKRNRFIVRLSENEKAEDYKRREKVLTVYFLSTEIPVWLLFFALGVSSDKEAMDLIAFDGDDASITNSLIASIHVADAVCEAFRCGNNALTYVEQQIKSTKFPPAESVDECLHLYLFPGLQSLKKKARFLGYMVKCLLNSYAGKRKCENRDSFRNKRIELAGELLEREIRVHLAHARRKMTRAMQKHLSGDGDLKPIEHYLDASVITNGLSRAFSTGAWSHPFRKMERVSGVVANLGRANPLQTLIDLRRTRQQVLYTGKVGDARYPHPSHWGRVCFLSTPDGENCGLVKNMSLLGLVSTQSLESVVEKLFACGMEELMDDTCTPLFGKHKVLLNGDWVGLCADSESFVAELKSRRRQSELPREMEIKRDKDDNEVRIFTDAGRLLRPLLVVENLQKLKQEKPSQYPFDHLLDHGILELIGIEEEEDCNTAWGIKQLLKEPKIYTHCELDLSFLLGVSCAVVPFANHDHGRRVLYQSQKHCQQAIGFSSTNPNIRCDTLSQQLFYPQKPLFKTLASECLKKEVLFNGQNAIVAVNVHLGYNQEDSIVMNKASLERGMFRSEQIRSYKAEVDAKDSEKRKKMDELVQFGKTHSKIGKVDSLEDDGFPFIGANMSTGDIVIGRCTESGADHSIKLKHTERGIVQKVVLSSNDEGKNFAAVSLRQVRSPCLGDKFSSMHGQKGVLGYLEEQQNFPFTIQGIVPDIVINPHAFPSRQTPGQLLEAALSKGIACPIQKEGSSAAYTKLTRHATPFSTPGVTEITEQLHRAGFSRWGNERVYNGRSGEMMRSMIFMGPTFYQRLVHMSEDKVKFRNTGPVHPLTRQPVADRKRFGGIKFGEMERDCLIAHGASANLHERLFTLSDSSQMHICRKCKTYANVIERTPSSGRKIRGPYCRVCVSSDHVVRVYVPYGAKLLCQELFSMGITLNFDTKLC

B1: NRP(A/B/C/D/E)12 (natural protein)
chain: not shown
notes: NRP(A/B/C/D/E)12, subunit 12 shared by Pol I-V, Arabidopsis thaliana; source: endogenous, A. thaliana T87 cells, co-purified with 3xFLAG-10xHis-NRPE1
B2: KOW domain-containing transcription factor 1 (KTF1), residues 1-712, the conserved N-terminal domain (domain or fragment, Arabidopsis thaliana, UniProt F4JW79 1-712, looked up)
chain: MDRKGKGKQVAGSDSYSGGQKRKNSVEFRDEGLRIKKRKNPEVLQFFEESAEVGYYGGSSDEDDDGLGFLNDMEDEPEVEESSKAGKGEKGKSSFVFPKEEDLNEEEFDRIMEERYKPGSGFLRYADDDIKDAIEMDALAPTSKDPPIWKVKCAIGRERRSVFCLMHKFVELRKIGTKLEIISVFSVDHVKGFIFIEADKEHDVLEACKSLVGIYATRMVLLPKAETPNLLTVQKKTKKVSEGTWARVKNGKYKGDLAQIVAVSDTRNKALIKLIPRIDIQALTQKYGGGVTVQKGQTPAPRLISSSELEEFRPLIQVRRDRDTGITFEHLDSLMLKDGYLYKKVSLDSISSWGVIPTKDELLKFTPVDRKETGDVEWISEIYGEERKKKILPTCREGGKGEGSGGGKGEGSGGGKGEGSRGGKGEGSSDFKSESSYELYNLVCFSRKDFGLIVGVDDKGDGYKVLKEGIDGPVVVTVGKKEMQNGPFDSKFTALDLNKKQISVNDVVKISKGPSEGKQGVVRQVYRGIIFLYDESEEENGGYFCCKSQSCEKVKLFTEESNEKTGGFDGTAFEDFVSSPKSPLSPEKEWQPRERYNSSNQGDIGSTYSIGQKLRIRVGPLKGYLCRVIALRYSDVTVKLDSQHKIFTVKSEHLAEVRDRNTVLSTSGDAGTGSFQPFGMLGTESSTGDWAIGAGTSSEGGNWNIGGPSTDS
notes: KTF1 (SPT5L), Arabidopsis thaliana, At5g04290, residues 1-712 (NGN, KOW1, KOW4, KOW5; without the C-terminal GW/WG repeats); The modified pETDuet1 vector carries a 6xHis-tagged SUMOstar that was cleaved on the column; Added to Pol V as the heterodimer with SPT4; Only the KOW5 domain is seen in the map; also called SPT5L; truncated KTF1 (1-712)
B3: NRP(B/D/E)3 (natural protein, UniProt Q39211 1-319, looked up)
chain: MDGATYQRFPKIKIRELKDDYAKFELRETDVSMANALRRVMISEVPTVAIDLVEIEVNSSVLNDEFIAHRLGLIPLTSERAMSMRFSRDCDACDGDGQCEFCSVEFRLSSKCVTDQTLDVTSRDLYSADPTVTPVDFTIDSSVSDSSEHKGIIIVKLRRGQELKLRAIARKGIGKDHAKWSPAATVTFMYEPDIIINEDMMDTLSDEEKIDLIESSPTKVFGMDPVTRQVVVVDPEAYTYDEEVIKKAEAMGKPGLIEISPKDDSFIFTVESTGAVKASQLVLNAIDLLKQKLDAVRLSDDTVEADDQFGELGAHMRGG
notes: NRP(B/D/E)3, subunit 3 shared by Pol II, IV and V, Arabidopsis thaliana; also called NRPE(B/D/E)3; source: endogenous, A. thaliana T87 cells, co-purified with 3xFLAG-10xHis-NRPE1

Key:
[1] = biological target: B2; experiment: cryo-EM structure; Pol V, nucleic-acid scaffold and KTF1/SPT4 heterodimer mixed 1:1.2:3 in 20 mM HEPES pH 7.5, 100 mM NaCl, 5 mM MgCl2, 1 mM DTT; complex taken from Superose 6 Increase; maps at 3.2 Å and 4.3 Å, local maps at 3.0 Å and 3.7 Å; conditions: both partners purified
NRP(D/E)2 = biological target: T1, NRP(D/E)2; experiment: as above; conditions: both partners purified

Binder | binding result [1] | binding result (NRP(D/E)2)
B1 | binds | –
B2 | – | binds
B3 | binds | –
